Reference: article PMC6386705

Columns and labels:
[1] = molecular target: HuR RRM3 (residues 241 to 326) (human), Q15717; assay: ITC; conditions: remark: other sources report otherwise
[2] = molecular target: HuR RRM3 (residues 241 to 326) (human), Q15717; assay: NMR 15N relaxation; conditions: remark: other sources report otherwise

Kd [1]: 31.7 µM
stoichiometry N [2]: 2
B1: HuR RRM3 (residues 241 to 326), Q15717 241-326 (domain or fragment)
chain: SSGWCIFIYNLGQDADEGILWQMFGPFGAVTNVKVIRDFNTNKCKGFGFVTMTNYEEAAMAIASLNGYRLGDKILQVSFKTNKSHK
